Results on one substance are retold here after publication PMC2680606.

The target in this assay is Myc-UbcM2-His6 (mouse) (UniProt P52483). The experiment in a line: pull-down.
Myc-UbcM2-His6 (mouse), sequence (P52483 whole entry): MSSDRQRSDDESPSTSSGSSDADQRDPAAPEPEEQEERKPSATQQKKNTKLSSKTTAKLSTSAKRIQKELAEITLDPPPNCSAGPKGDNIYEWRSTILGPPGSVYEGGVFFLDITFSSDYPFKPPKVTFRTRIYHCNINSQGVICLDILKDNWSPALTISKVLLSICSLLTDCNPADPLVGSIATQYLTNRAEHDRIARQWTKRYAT

^35S-RCBTB1 without the BTB domain and the C-terminal 87 residues, sequence (Q8NDN9 1-359): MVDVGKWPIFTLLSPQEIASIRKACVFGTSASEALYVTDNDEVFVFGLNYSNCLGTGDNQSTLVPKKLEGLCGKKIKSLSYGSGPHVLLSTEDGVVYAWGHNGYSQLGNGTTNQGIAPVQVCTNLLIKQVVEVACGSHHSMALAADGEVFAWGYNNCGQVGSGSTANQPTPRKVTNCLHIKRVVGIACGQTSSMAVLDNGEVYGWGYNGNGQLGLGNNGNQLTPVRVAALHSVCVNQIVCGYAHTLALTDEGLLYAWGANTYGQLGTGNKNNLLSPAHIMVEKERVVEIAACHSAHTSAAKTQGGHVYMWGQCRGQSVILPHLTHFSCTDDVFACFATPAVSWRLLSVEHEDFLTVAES

On to “^35S-RCBTB1 without the BTB domain and the C-terminal 87 residues (from UniProt Q8NDN9 1-359) (domain or fragment)”, for which the decrease of binding against wild type RCBTB1 turned out to be 78%.
